Experimental data taken from the supplement of paper PMC9170038.

Experiments:
MS2 coat protein [1] = assay: apparent KD of MS2 coat protein; higher = weaker reporter binding; conditions: Eterna round: R101
Method: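 RNA-MaP: designed FMN/MS2 RNA switches (84 nt design region) are transcribed on-chip within common flanks and titrated with SNAP-549-labelled MS2 coat protein (about 1-3000 nM) in 100 mM Tris pH 7.5, 80 mM KCl, 4 mM MgCl2, without or with 200 uM FMN. Median apparent KD per design; activation ratio = KD,OFF / KD,ON.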

MS2 coat protein [2] = assay: apparent KD of MS2 coat protein, switch OFF state (with FMN for OFF switches, without FMN for ON switches); designed switch direction (-1 OFF switch, 1 ON switch): 1; higher = weaker reporter binding; conditions: FMN input: 0 or 200 uM; Eterna round: R93 (includes R88 designs)
In short: (§1)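 Illumina sequencing clusters were used for on-chip transcription of designed RNA switches. Titration with SNAP-549-labelled MS2 coat protein followed, in twofold steps from 0.7 or 1.5 nM to 3 µM in 100 mM Tris-HCl pH 7.5, 80 mM KCl, 4 mM MgCl2, without or with constant ligand. Apparent KD is each design's median of fits to normalised cluster binding curves.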

MS2 coat protein [3] = assay: apparent KD of MS2 coat protein, switch ON state; designed switch direction (-1 OFF switch, 1 ON switch): 1; higher = weaker reporter binding; conditions: FMN input: 0 or 200 uM; Eterna round: R93 (includes R88 designs)
In short: as §1

| Sequence | apparent KD of MS2 coat protein (MS2 coat protein [1]; input ligand: FMN 200 uM) | apparent KD of MS2 coat protein (MS2 coat protein [1]; input ligand: none) | apparent KD of MS2 coat protein (MS2 coat protein [2]) | apparent KD of MS2 coat protein (MS2 coat protein [3]) |
| --- | --- | --- | --- | --- |
| UUACUCAUGUAAGGAUAUGCAGCCGAAACGGCUGCAGAAGGUACUAUAAUACAUGAGGAUCACCCAUGUAAAAUAUAUAAAGUU (puzzle (switch architecture): Same State NG 1) | 18.3 nM | 29.3 nM |  |  |
| AGGAGAAAUGUAGGAUAUGGGCGGGCGGACGGGCAAAGCGCGUCCGCCCGCCCAGAAGGACAUGAGGAUCACCCAUGUUUCCCU [Wow, my 5th design!] (puzzle (switch architecture): Small Loop Exclusion NG 1) | 13 nM | 12.2 nM |  |  |
| GGUCGACUUCAAGGAUAUGGACUGCAAAGCAGUCCAGAAGGUGAGGAUCACCCAUCUACGGUCAGGAAACUGACCGAUCGACCA [#SharedSequence - ExNG1-8] (puzzle (switch architecture): Exclusion NG 1) | 117 nM | 86.2 nM |  |  |
| UAAAUAGAUCCUAGAGGAUCACCCUAGGAUAUCACCGUCGAGGUGCCAUAAUGGCACCUCGACGGUGAGAAGGAGGAAAAUAAA [#SharedSequence - SLExNG3: 5] (puzzle (switch architecture): Small Loop Exclusion NG 3) | 21.8 nM | 11.5 nM |  |  |
| CGUAGUCCGUAGAAGGGUGACAUGAGGAUCACCCAUGUGCGAGCGGAGGGAGUCAGCGGCUCGCCACAGGAUAUACGGAGCACG [Eniszabe] (puzzle (switch architecture): Inverted Same State NG 2) | 28.8 nM | 137 nM |  |  |
| GGAGAUACAUGAGGAUCACCCAUGUAGGAUAUAUAGUAUAUAUAUAUUGAAAGGUAUAUAUAUAUAUAGAAGGGCGUGCACACC [#LOL-18] (puzzle (switch architecture): Small Loop Exclusion NG 3) | 6.73 nM | 9.07 nM |  |  |
| ACACGUCGUGAGAAGGAGGAUCACCCUUUCGAAAGAAAGAGCCACCGUGAAAACGGUGGCAAAUUCUAGGAUAUCACGACGUGA [#SharedSequence - IExNG2: 2] (puzzle (switch architecture): Inverted Exclusion NG 2) | 363 nM | 230 nM |  |  |
| UUGGACGUCGUAGGAUAUGUAGGAUAUUCCUACAUGAGGAUCACCCAUGUUGACAUGGAAGAAGGACAGAAGGACGAUGUCCAU (puzzle (switch architecture): Same State NG 2) | 4.56 nM | 217 nM |  |  |
| UAAUAUAUAUAGAAGGACAUGAGGAUCACCCAUGUCGCCGGGCCCGGGAAACCGGGCCCGGCCAUGUAGGAUAUAUAUAUAUUA [#This is a good prank 10] (puzzle (switch architecture): Inverted Exclusion NG 2) | 5.17 nM | 4.9 nM |  |  |
| CGGGAUAUGAAGGGCGAAAGCCCACAUGAGGAUCACCCAUGUAGAAGGCGGGCCGCAACGCGGCCCGAGGAUAUACAAUAUCCA [#my 7th design] (puzzle (switch architecture): Inverted Exclusion NG 3) | 13.1 nM | 9.05 nM |  |  |
| AAAUAAUCCUUAGGAUAUGACUCCGAAACGGAGUCAGAAGGGAGGAUCACCCUCUUCAGCUCAGCGUCGAAAGACGCUGAGCAA [#SharedSequence ExNG1 - 22] (puzzle (switch architecture): Exclusion NG 1) | 200 nM | 72.8 nM |  |  |
| AGACCUGCUCAGAAGGAGAGUGCGAGGCUGGAAACAGCCUCGAACUAGAAACCUAGAGGAUCACCCUAGGAUAUGAGCAGGUCA [#SharedSequence - IExNG2: 10] (puzzle (switch architecture): Inverted Exclusion NG 2) | 5.58 nM | 5.51 nM |  |  |
| GGUGCACGCACAGGAUAUCCGGCGAAGCUCGUCGGAGAAGGGUGACAUGAGGAUCACCCAUGUACGUGCAGCCAAGUUUGAGAG [Laaar] (puzzle (switch architecture): Same State NG 1) | 47.6 nM | 26.8 nM |  |  |
| GGAUAGGACAGAGGAUAUACGUGCUAGAGAUACUAGCAAAAUUUCCUCACAUGAGGAUCACCCAUGUAGAAGGCUGUCCUAUCG (puzzle (switch architecture): Exclusion NG 2) | 415 nM | 15.7 nM |  |  |
| GACUGCAGGAUAACAACCUGCAGUCACUUCUGAGGAUCACCCAGAAGGGCUGAGGUAAUACCUCAGCAGGAUAUGGAGUGUAAA [#SharedSequence IExNG# - 8] (puzzle (switch architecture): Inverted Exclusion NG 3) | 70.1 nM | 21.9 nM |  |  |
| AACAAUCUAUCUGAGGAUAUGAUGUCAAAGACAUGAGGAUCACCCAUGUGCAGGAAAACUGCAUAUCAGAAGGCAGAUAGAUUGA [SS2: 1103] |  |  | 18.4 nM | 15.6 nM |
| AGAAAUAAAAGAGAGGAUAUCCAAAAGGGAACAUGAGGAUCACCCAUGUAAAUGAAAAUAAAAUGGGAGAAGGCUCAAAAUAAAG [80% More Helter Skelter 2] |  |  | 85 nM | 54.6 nM |
| UAUCAUUACACGAAGGAUAUCGAUAAUUGAACAUGAGGAUCACCCAUGUGCCAUCCCUUACAGUUCGAGAAGGUCGAGGGUGAAG [JR_SS002_Sub707] |  |  | 299 nM | 142 nM |

| Sequence | apparent KD of MS2 coat protein (MS2 coat protein [1]; input ligand: FMN 200 uM) | apparent KD of MS2 coat protein (MS2 coat protein [1]; input ligand: none) | apparent KD of MS2 coat protein (MS2 coat protein [2]) | apparent KD of MS2 coat protein (MS2 coat protein [3]) |
| --- | --- | --- | --- | --- |
| GGGAGGAAGAGAGAGGAUAUCCAAAGGAAAACAUGAGGAUCACCCAUGUAAAAGGUAGGAAAUUGGGAGAAGGCUCAAAAGAGGG [salish99-ss2-038] |  |  | 40.6 nM | 29.8 nM |
| AAGAAACAUGAGGAUCACCCAUGUACCCAAAAGCGAGGAUAUGGGAAAGAAAGAAAGAAACCAGAAGGCGCAUGAA [Darius II] |  |  | 35.5 nM | 20 nM |
| GGGAGACAUGAGGAUCACCCAUGUGAGAAGAGGCGAGGAUAUCGAAAAAAAAAAAAAAAACGAGAAGGCGCGAGAU [salish99-SS1-004] |  |  | 300 nM | 74.4 nM |
| GUCAGGAAGAGAGAGGAUAUCCAAAGGAAAACAUGAGGAUCACCCAUGUAAAAGGUAGGAAAUUGGGAGAAGGCUCAAGAGAGAG [salish99-ss2-095] |  |  | 48.8 nM | 31.5 nM |
| AAUAUACAUGAGGAUCACCCAUGUUUUAAUAACUGAGGAUAUACGGGUGAAAACAGCAUAGUAGAAGGCAGAAAAA [SameState1 Malc#5] |  |  | 89.1 nM | 42.2 nM |
| GUAGACAUAGUUCAGGAUAUAUGAAUAGUCACAUGAGGAUCACCCAUGUGCAUUUAUAUGCGCACAUAGAAGGGAGGUAGUUAAC [Mat - Same state - Malcolm Mod - D122] |  |  | 20.7 nM | 22.3 nM |
| GAAAAACAUGAGGAUCACCCAUGUGAAAAUAUGGGAGGAUAUACUAAGACGAAAGUCGAGGUAGAAGGCCUAAAAG [Same State 1.4h (Mat - Mod of Eli - )] |  |  | 131 nM | 24.7 nM |
| UAAUAAUAAACCAAGGAUAUGGAGUUUCCAACAUGAGGAUCACCCAUGUUUAGCAUGAAAUCGAACCAGAAGGUGGAGCCAAAUA [JR_SS002_Sub1004] |  |  | 42.5 nM | 10.8 nM |
| GGGAGACAUGAGGAUCACCCAUGUGAAAACGUGUGAGGAUAUCUAUGGAAACCAUACUGUAGAGAAGGCACUUGUC [Servius Sulpicius Similis] |  |  | 125 nM | 45.4 nM |
| AAAAAACAUGAGGAUCACCCAUGUGAGAACAUGGGAGGAUAUACAAGGACGAGAGUCAAAGUAGAAGGCCUAAAAA [Garnet 65] |  |  | 29.9 nM | 155 nM |
| AGGAAACAUGAGGAUCACCCAUGUAAAGAAGGGUGAGGAUAUACAAAGAAAAGAAAGAAAGUAGAAGGCACAAAAG [Mongoose] |  |  | 113 nM | 233 nM |
| ACUAUACAUGAGGAUCACCCAUGUCAGGUGGGACUAGGAUAUCAAAAGCCAGAGUAAGAAUGAGAAGGAGUAGAAA [JR_SS001_Sub304] |  |  | 69.3 nM | 66.4 nM |
| GAAAAACAUGAGGAUCACCCAUGUAGAAAUAUGGGAGGAUAUACGAACUCGAAAGUCAAAGUAGAAGGCCUAAAAG [Garnet 30] |  |  | 130 nM | 47 nM |
| AAAAAACAUGAGGAUCACCCAUGUCCUCGGACAUGAGGAUAUGUACAGACUUCGGUCUGUACAGAAGGCAUGAAAA [SS1 - 1014] |  |  | 756 nM | 713 nM |
| GAGGACAUAGUUCAGGAUAUAUGAAUAGUCACAUGAGGAUCACCCAUGUCCAUUUAUAUGGGCACAUAGAAGGGAGGUAGUUAUC [SameState2 Malc#26] |  |  | 417 nM | 205 nM |
| GAAAAACAUGAGGAUCACCCAUGUGAAAAUAUGGGAGGAUAUACGAAGUCGAAAGUCAGAGUAGAAGGCCUAAAAG [Garnet 33] |  |  | 73.3 nM | 26.7 nM |
| AUAAAAUAAAGGGAGGAUAUCUAUAAUAAAACAUGAGGAUCACCCAUGUUAAAAAGAAGAUCAUGGGAGAAGGCCUAAAAUAAAU [SS2 M 30] |  |  | 46.1 nM | 37.9 nM |
| ACAAAGCUACACUAGGAUAUGGGUGUCUAAACAUGAGGAUCACCCAUGUGAUGGCAAAACAAAGCUCAGAAGGAGUCGUAGCCCA [Bientevece] |  |  | 34.9 nM | 15 nM |
